Read-outs that look alike come from different tables or passages of the source.

Test [1] addresses CDC37 recombinant protein (UniProt Q16543). The experiment in a line: ITC.
The target is the same in test [2]. The experiment in a line: ITC. The source holds these as a separate data set. Background: Isothermal titration calorimetry measures the heat released or taken up as one component is titrated into another.
Test [3] deals with HSP90α mutant Y61A (Homo sapiens, UniProt P07900, Y61A). In words: biochemical.
The target of test [4] is HSP90α (90 kD heat shock protein alpha) (Homo sapiens, UniProt P07900). The experiment in a line: biochemical.

CDC37 recombinant protein, sequence (Q16543 whole entry): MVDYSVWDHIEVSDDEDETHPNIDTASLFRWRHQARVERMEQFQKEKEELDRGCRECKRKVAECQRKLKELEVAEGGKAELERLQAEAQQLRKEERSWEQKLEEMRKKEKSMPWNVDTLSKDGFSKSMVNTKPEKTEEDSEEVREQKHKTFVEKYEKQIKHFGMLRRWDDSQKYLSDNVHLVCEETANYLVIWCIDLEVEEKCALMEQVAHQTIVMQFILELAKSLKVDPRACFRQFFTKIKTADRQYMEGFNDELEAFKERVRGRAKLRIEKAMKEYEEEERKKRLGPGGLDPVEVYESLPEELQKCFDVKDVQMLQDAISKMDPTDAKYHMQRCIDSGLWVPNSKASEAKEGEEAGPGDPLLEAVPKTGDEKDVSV

In the case of “HSP90α WT recombinant protein from E. coli (from UniProt P07900 1-732) (natural protein)”, the figures for the Kd in test [1] and in test [2] were 2.68 µM and 34.4 µM, respectively.
The like results for “HSP90α Y61A recombinant protein from E. coli (from UniProt P07900 1-732) (natural protein)” were, in that order, 7.59 µM and 8.23 µM.
As to `CC(C)=CC/C=C(\C)[C@H]1CC[C@]2(C)[C@@H]1[C@H](O)C[C@@H]1[C@@]3(C)CC[C@H](O[C@@H]4O[C@H](CO)[C@@H](O)[C@H](O)[C@H]4O[C@@H]4O[C@H](CO)[C@@H](O)[C@H](O)[C@H]4O)C(C)(C)[C@@H]3CC[C@]12C` [Rg5, ginsenoside Rg5], the figures for the equilibrium dissociation constant (Kd) in test [3] and in test [4] were 232 ± 34 µM and 24.8 ± 1.76 µM, respectively.

The term Kd denotes the free concentration of one partner at which half of the binding sites on the other are occupied at equilibrium, for simple one-to-one binding.

Source of the values: publication PMC10759260 (Journal of Pharmaceutical Analysis, 2023).
